From PMC5835670

Biological target: SbSTOP1d-NT (N-terminal fragment of SbSTOP1d, 1-275 aa, truncated before the zinc finger domain) fused to the GAL4 DNA-binding domain (Sorghum bicolor (sweet sorghum))
Experiment: two-hybrid; β-galactosidase assay in yeast strain Y190 with CPRG as substrate, Miller units; BD-SbSTOP1d-NT bait, AD fusion prey

β-galactosidase activity, fold of the control (times that of the control) | Substance
80 | SbSTOP1b fused to the GAL4 activation domain (natural protein)
450 | SbSTOP1d fused to the GAL4 activation domain (natural protein)
